Measurements reported in paper doi:10.1101/2022.08.03.502606.
Read-outs that look alike come from different tables or passages of the source.

Legend:
[1] = target: CaMKII^K42RD135N-AviTag (kinase-dead CaMKII, K42R and D135N double mutant, C-terminal AviTag) (human) (UniProt Q9UQM7); assay: mass photometry
[2] = target: CaMKII^K42RD135N-AviTag (kinase-dead CaMKII, K42R and D135N double mutant, C-terminal AviTag) (human) (UniProt Q9UQM7); assay: mass photometry; remark: listed apart in the source
[3] = target: CaMKII^K42RD135N-AviTag (kinase-dead CaMKII, K42R and D135N double mutant, C-terminal AviTag) (human) (UniProt Q9UQM7)
CaMKII^F394BzF (human) = CaMKII^F394BzF (human) (UniProt Q9UQM7)

stoichiometry N [1] | percent in the tetramer peak [2] [%] | stoichiometry N [2] | stoichiometry N [3] | stoichiometry N (CaMKII^F394BzF (human)) | Substance
10 | 12 | 4 | 12 |  | CaMKII^K42RD135N-AviTag (kinase-dead CaMKII, K42R and D135N double mutant, C-terminal AviTag) (from UniProt Q9UQM7 6-478) (enzyme)
 |  |  |  | 12 | CaMKII^F394BzF (from UniProt Q9UQM7 6-478) (enzyme)
